Test results: patent publication US10617759B2, “Light-stimulated release of cargo from oligonucleotides” (Trustees of Boston University, priority 2016, dated 2020)

Assay: Protein caging and uncaging, particle counting of TEM images
Format: physicochemical
Conditions: low power light irradiation for 60 seconds (302 nm)
Method: BSA was directly caged through the reaction of our crosslinker with the surface amino groups on the protein. Streptavidin was indirectly caged by attaching biotin-amine to the nanocage cavity and then subsequently mixing with the protein. […] None were seen tethered to the cage exterior.
TEM samples were prepared by placing 3 μL of sample solution onto a carbon coated grid (FCF400-Cu, Electron Microscopy Sciences) which was previously charged using a plasma etcher (30 seconds of irradiation). After 2 minutes, the solution was wicked away from the grid with filter paper (Whatman 50 hardened). The grid was immediately treated with stain for 30 seconds and excess solution was wicked away. The remaining solution on the grid was evaporated at room temperate prior to imaging. TEM images were acquired with an FEI Tecnai Spirit Transmission Electron Microscope operated at 80 kV. Saturated uranyl formate (in ddH2O prepared freshly before usage) was used for protein caging experiments and 2% uranyl acetate (diluted with ddH2O from 4%, Electron Microscopy Sciences) was used for all other samples.
Protein containing nanocages were created following the general cavity functionalization protocol. 5 equivalents per oligo handle were used. […] The extent of uncaging was analyzed using particle counting of the TEM images. The entirety of each TEM image was analyzed to avoid bias.

With streptavidin the “nanocages containing protein after light irradiation” value was 9% and the uncaging efficiency was 87%.
